Test results taken from patent publication US20120114595A1 (OTSUKA CHEMICAL, published 2012).

What was measured:
[1] = target: T1, AILIM ligand B7-H2/Fc Chimera (R&D Systems, Inc.), biotinylated (UniProt O75144 19-258, biotinylated using EZ-Link NHS-PEO Solid Phase Biotinylation Kit (sites not given)); experiment: ELISA, coated synthetic AILIM (lot a, 0.004178 nmol/ml) against coated ICOS/Fc as reference, biotinylated B7-H2/Fc
T1 construct: Bought reagent; also called B7RP-1; Fc part of the bought chimera not given
T1 sequence (looked up): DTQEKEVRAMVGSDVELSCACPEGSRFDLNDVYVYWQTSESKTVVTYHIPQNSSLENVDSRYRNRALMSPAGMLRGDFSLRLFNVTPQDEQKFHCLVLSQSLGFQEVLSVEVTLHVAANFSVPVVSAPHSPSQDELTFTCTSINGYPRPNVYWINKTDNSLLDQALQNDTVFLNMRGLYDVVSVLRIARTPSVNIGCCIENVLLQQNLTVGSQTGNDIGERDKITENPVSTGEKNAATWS
Experimental: (§1) Dilution series of each evaluation sample solution of synthetic AILIM were added to an ELISA plate, and each well was coated therewith by reaction at 37° C. for 2 hours. After the reaction, the sample solution was discarded, D-PBS (−) containing 0.4% bovine serum albumin and 0.05% Tween 20 (blocking solution) was added at a concentration of 150 μL/well, and each well was blocked by reaction at 37° C. for 1 hour. The plate thus blocked was washed 3 times with D-PBS (−) containing 0.1% bovine serum albumin and 0.05% Tween 20 (washing buffer). An AILIM ligand B7-H2/Fc Chimera (R&D Systems, Inc.) biotinylated using EZ-Link NHS-PEO Solid Phase Biotinylation Kit was added at a concentration of 200 ng/50 μL/well and reacted at 37° C. for 1.5 hours. Unreacted ligand molecules were removed by washing 3 times with the washing buffer.
(§2) Subsequently, streptavidin-labeled horseradish peroxidase (BD-Pharmingen) diluted 1000-fold with D-PBS (−) containing 0.1% bovine serum albumin was added at a concentration of 100 μL/well and reacted at 37° C. for 1 hour. After the reaction, the plate was washed with 3 times with the washing buffer to remove unreacted streptavidin-labeled horseradish peroxidase. […] The reaction was terminated by the addition of 1% SDS at a concentration of 100 μL/well, and the OD value at 405 nm was measured using a plate reader (VersaMax, Molecular Devices, LLC). […]

[2] = target: T1, AILIM ligand B7-H2/Fc Chimera (R&D …); experiment: ELISA, coated synthetic AILIM (lot a, 0.06684 nmol/ml) against coated ICOS/Fc as reference, biotinylated B7-H2/Fc
Experimental: as §1, §2

[3] = target: T1, AILIM ligand B7-H2/Fc Chimera (R&D …); experiment: ELISA, coated synthetic AILIM against coated ICOS/Fc as reference, biotinylated B7-H2/Fc
Experimental: as §1, §2

[4] = target: T1, AILIM ligand B7-H2/Fc Chimera (R&D …); experiment: ELISA, coated synthetic AILIM (lot a, 0.01671 nmol/ml) against coated ICOS/Fc as reference, biotinylated B7-H2/Fc
Experimental: as §1, §2

B1: oligosaccharide chain-added extracellular domain of AILIM (synthetic AILIM), 120-amino acid extracellular domain of human AILIM with an asialo-nonasaccharide … (receptor)
chain: EINGSANYEMFIFHNGGVQILCKYPDIVQQFKMQLLKGGQILCDLTKTKGSGNTVSIKSLKFCHSQLSNNSVSFFLYNLDHSHANYYFCNLSIFDPPPFKVTLTGGYLHIYESQLCCQLK
modifications: asialo-nonasaccharide chain on Asn at position 69 (residue 89 by counting from the N-terminal Met of AILIM); no oligosaccharide chain at positions 3 and 90
notes: Made by chemical synthesis (Fmoc solid phase, KCL/NCL ligation), Acm groups removed, folded by dialysis in two dialysis tubes (lot a and lot b); Coated on the ELISA plate in the assays; also called synthetic AILIM lot. a; synthetic AILIM lot. b
B/A (ICOS/Fc concentration for the same absorbance over synthetic AILIM concentration) [1]: 8.88 fold
B/A (ICOS/Fc concentration for the same absorbance over synthetic AILIM concentration) [2]: 11.4 fold
fold ICOS/Fc concentration required for equivalent ligand binding activity [3]: ~10 fold
B/A (ICOS/Fc concentration for the same absorbance over synthetic AILIM concentration) [4]: 6.05 fold
